According to patent US20260242478A1 (published 2026):
Where no end group is shown, it is not given here.

How the values were obtained:
[1] = target: T1, anti-CD28 scFv (VH - linker 1 - VL) (biotinylated (site not stated)); experiment: phage ELISA as above, wells pre-incubated with soluble CD28 (competitor);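 note: ELISA of crude clonal phage supernatants added to wells pre-treated with soluble CD28 in blocking buffer, bound phage read out with HRP-conjugated anti-M13 antibody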
T1 sequence (scFv, as listed by the source): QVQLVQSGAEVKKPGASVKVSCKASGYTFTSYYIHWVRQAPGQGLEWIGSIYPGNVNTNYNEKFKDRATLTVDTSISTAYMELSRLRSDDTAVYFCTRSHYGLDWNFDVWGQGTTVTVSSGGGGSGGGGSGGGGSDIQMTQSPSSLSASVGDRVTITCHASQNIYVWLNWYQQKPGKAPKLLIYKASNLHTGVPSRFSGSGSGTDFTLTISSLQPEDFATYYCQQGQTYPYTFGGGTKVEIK

[2] = target: T1, anti-CD28 scFv (VH - linker 1 - VL); experiment: phage ELISA; biotinylated anti-CD28 scFv on neutravidin plate, clonal phage supernatant, anti-M13-HRP detection;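 note: before phage addition, wells were pretreated with soluble CD28 protein in blocking buffer, or with blocking buffer only as the comparison, then phage were added without washing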
[3] = target: T2, anti-CD28 scFv (VH - linker 1 - VL) (biotinylated (site not stated)); experiment: clonal phage ELISA; biotinylated anti-CD28 scFv on neutravidin plate, anti-M13-HRP detection;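 note: crude supernatants of phage clones were tested in wells pretreated with blocking buffer either alone or supplemented with soluble CD28 protein before phage addition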
T2 construct: Captured as biotinylated scFv on neutravidin coated plates in the clonal phage ELISA
T2 sequence (scFv, as listed by the source): as above

[4] = target: T3, anti-CD28 scFv (VH - linker 1 - VL) (biotinylated (captured on neutravidin coated plates)); experiment: clonal phage ELISA; biotinylated anti-CD28 scFv on neutravidin plate, phage detected with anti-M13-HRP;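 note: crude clonal phage supernatants added to wells preincubated with blocking buffer alone or blocking buffer plus soluble CD28 protein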
T3 sequence (scFv, as listed by the source): as above
Procedure: (§1) Clonal phage were harvested as crude supernatants and screened via standard enzyme linked immunosorbent assays (ELISAs). […] Prior to the addition of clonal phage, wells were incubated with blocking buffer and CD28 soluble protein or blocking buffer alone. Without washing or aspirating, clonal phage supernatants were then added to the wells and incubated for a short time. Wells were then washed followed by detection of bound phage using a horse radish peroxidase conjugated anti-M13 antibody.

[5] = target: T3, anti-CD28 scFv (VH - linker 1 - VL); experiment: clonal phage ELISA on anti-CD28 scFv; wells pre-incubated with soluble CD28 (competitor);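 note: crude phage supernatants added to wells preloaded with blocking buffer plus soluble CD28, bound phage read with HRP-linked anti-M13 antibody, comparison wells received blocking buffer only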
Procedure: as §1

Binder | CD28 scFv signal in presence of CD28 [1] | CD28 scFv signal [2] | CD28 scFv signal [3] | CD28 scFv signal [4] | CD28 scFv signal in presence of CD28 [5]
MNWCPTDLWHECFN (peptide, not shown: large carriers, Clonal phage of the Peptide-9 library) [Phage-162] | 0.095 | 1.09 | – | – | –
MFWCPRYLWHECFN (peptide, not shown: large carriers, Clonal phage of the Peptide-9 library) [Phage-163] | 0.175 | 1.08 | – | – | –
MDWCPKFLWDLCFA (peptide, not shown: large carriers, Clonal phage of the Peptide-9 library) [Phage-164] | 0.139 | 1.07 | – | – | –
MDWCPFYLWDECFL (peptide, not shown: large carriers, Clonal phage of the Peptide-9 library) [Phage-165] | 0.141 | 1.02 | – | – | –
MSWCPQDLWHVCFN (peptide, not shown: large carriers, cysteine pairing not given here; also: displayed as fusion to phage pIII, linker and pIII sequence not given here, Clonal phage of the Peptide-9 library) [Phage-167] | 0.112 | 0.86 | – | – | –
MDWCPKDLWHECFN (peptide, not shown: large carriers, cysteine pairing not given here; also: displayed as fusion to phage pIII, linker and pIII sequence not given here, Clonal phage of the Peptide-9 library) [Phage-168] | 0.1 | 0.762 | – | – | –
MNWCPSDLWHLCFN (peptide, not shown: large carriers, cysteine pairing not given here; also: displayed as fusion to phage pIII, linker and pIII sequence not given here, Clonal phage of the Peptide-9 library) [Phage-170] | 0.131 | 0.739 | – | – | –
MNWCPSHLWHMCYF (peptide, not shown: large carriers, cysteine pairing not given here; also: displayed as fusion to phage pIII, linker and pIII sequence not given here, Clonal phage of the Peptide-9 library) [Phage-171] | 0.192 | 0.702 | – | – | –
MDWCPRNMWTVCFL (tested as crude clonal phage supernatant) [Phage-211] | – | – | 1.12 | – | –
MDWCPRDRWVDCFF [Phage-223] | – | – | – | 1.58 | 0.14
MDWCPRDRWADCFF [Phage-225] | – | – | – | 0.392 | 0.089
MDWCPKDRWNDCYF [Phage-224] | – | – | – | 1.09 | –
MDWCPRDRWIDCFN [Phage-226] | – | – | – | 0.339 | 0.131
MDWCPRDRWSDCFN [Phage-227] | – | – | – | 0.102 | 0.074
ITWCHVISGLECWN [Phage-228] | – | – | – | 0.193 | 0.1
VPWCQIISGLECLT [Phage-229] | – | – | – | 0.174 | 0.077
APWCQIISGLECLT [Phage-230] | – | – | – | 0.169 | 0.078
VPWCLIISGLDCLN (also called VPWCLIISGLDCIN (so in the source)) [Phage-231] | – | – | – | 0.107 | 0.09
MDWCARFVGYGCLD [Phage-232] | – | – | – | 0.065 | 0.074

Binder | CD28 scFv signal in presence of CD28 [1] | CD28 scFv signal [2] | CD28 scFv signal [3] | CD28 scFv signal [4] | CD28 scFv signal in presence of CD28 [5]
MTWCPTSFWNRCLD [Phage-233] | – | – | – | 0.392 | 0.405
MDWCPRALWFECFF [Phage-234] | – | – | – | 2.67 | 0.331
MDWCPRYLWHECFS [Phage-235] | – | – | – | 2.65 | 0.303
MDWCPRYLWHECFD [Phage-244] | – | – | – | 2.07 | 0.177
MDWCPRDLWNLCFF [Phage-236] | – | – | – | – | 0.436
MDWCPSYLWHECFF [Phage-237] | – | – | – | 2.61 | 0.447
MDWCPPYLWSECFA [Phage-238] | – | – | – | 2.6 | 0.234
MDWCPRYLWHVCFN [Phage-239] | – | – | – | 2.6 | 0.409
MDWCPRTLWHVCFN [Phage-240] | – | – | – | 2.6 | 0.551
MDWCPRHLWHECYS [Phage-241] | – | – | – | 2.58 | 0.374
MDWCPKHLWTECFA [Phage-242] | – | – | – | 2.49 | 0.145
MDWCPRHLWYECFN [Phage-243] | – | – | – | 2.41 | 0.167
MDWCPRNLWHLCFA [Phage-245] | – | – | – | 1.4 | 0.164
MDWCPKHLWNKCFN [Phage-246] | – | – | – | 1.16 | 0.092
MDWCPRFMWAECFN [Phage-247] | – | – | – | 2.6 | 0.341
MDWCPRNMWHHCFD [Phage-248] | – | – | – | 1.6 | 0.524
MDWCPSDMWAHCYN [Phage-249] | – | – | – | 1.21 | 0.109
MDWCPKVMWHYCFA [Phage-250] | – | – | – | 1.14 | 0.252
